{"source": "paper PMC3936261", "assay_in_all_cases": "other fluorescence titration", "key": {"[1]": {"target": "Prdx1 protein labeled with Alexa Fluor 546 (UniProt Q06830)", "sequence (Q06830 whole entry)": "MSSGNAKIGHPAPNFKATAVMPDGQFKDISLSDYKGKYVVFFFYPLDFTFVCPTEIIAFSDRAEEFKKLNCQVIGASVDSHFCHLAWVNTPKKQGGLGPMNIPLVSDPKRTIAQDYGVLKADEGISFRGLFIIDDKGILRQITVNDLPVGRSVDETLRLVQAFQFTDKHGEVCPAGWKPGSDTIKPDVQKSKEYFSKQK"}, "[2]": {"target": "Prdx1 protein labeled with Alexa Fluor 546 (UniProt Q06830)", "remark": "listed apart in the source"}, "[3]": {"target": "Prdx1 protein labeled with Alexa Fluor 546 (UniProt Q06830)", "remark": "listed apart in the source"}}, "note": "Read-outs that look alike come from different tables or passages of the source."}
{"substance": "MKP-1 protein labeled with QSY 35 (from UniProt P28562 1-367) (enzyme)", "values": [{"measurement": "Kd", "setting": "[1]", "value": 215, "unit": "nM"}, {"measurement": "Kd", "setting": "[2]", "value": 210, "unit": "nM"}, {"measurement": "Kd", "setting": "[3]", "value": 261, "unit": "nM"}]}
